{"source": "paper PMC6641633", "about": "(ACS Omega, 2018)", "proteins": {"B1": {"name": "truncated hepatitis B virus capsid protein Cp149, wild type (domain or fragment, UniProt P03146 1-149, looked up)", "chain": "MDIDPYKEFGATVELLSFLPSDFFPSVRDLLDTASALYREALESPEHCSPHHTALRQAILCWGELMTLATWVGVNLEDPASRDLVVSYVNTNMGLKFRQLLWFHISCLTFGRETVIEYLVSFGVWIRTPPAYRPPNAPILSTLPETTVV"}, "B2": {"name": "Cp149-D2N/D4N mutant of the truncated hepatitis B virus capsid protein (domain or fragment, UniProt P03146 1-149, looked up)", "chain": "B1 chain with D2N, D4N"}}, "biological_target": "the molecule itself", "assay": "dynamic light scattering", "note": "Substitutions are numbered along the chain they refer to. Numbers in names are those of the source.", "data": [{"protein": "B1", "values": [{"measurement": "stoichiometry N", "result": 2}]}, {"protein": "B2", "values": [{"measurement": "stoichiometry N", "result": 2}]}]}
